The text below walks through data of patent publication US20230340439, “SYNTHETIC MINIATURE CRISPR-CAS (CASMINI) SYSTEM FOR EUKARYOTIC GENOME ENGINEERING” (The Board of Trustees of the Leland Stanford Junior …, published 2023).

In series [1] the target is T1, dCasMINI-V4-VPR (D143R/T147R/K330R/E528R) (UniProt A0A482D308 SEQ:1-529, D326A,D510A).
T1 sequence: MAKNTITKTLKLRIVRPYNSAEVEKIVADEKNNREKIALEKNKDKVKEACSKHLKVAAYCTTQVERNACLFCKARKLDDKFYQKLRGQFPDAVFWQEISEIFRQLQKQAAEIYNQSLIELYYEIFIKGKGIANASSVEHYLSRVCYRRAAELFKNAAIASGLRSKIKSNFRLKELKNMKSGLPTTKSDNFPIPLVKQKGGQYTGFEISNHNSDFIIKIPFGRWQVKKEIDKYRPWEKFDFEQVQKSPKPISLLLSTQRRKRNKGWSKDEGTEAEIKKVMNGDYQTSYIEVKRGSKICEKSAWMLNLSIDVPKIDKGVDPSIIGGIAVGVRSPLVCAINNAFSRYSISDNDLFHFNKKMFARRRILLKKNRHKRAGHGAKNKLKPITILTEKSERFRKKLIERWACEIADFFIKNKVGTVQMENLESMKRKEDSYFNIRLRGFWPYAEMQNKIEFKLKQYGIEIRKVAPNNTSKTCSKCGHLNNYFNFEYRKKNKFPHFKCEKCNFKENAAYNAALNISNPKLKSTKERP
The series is described as follows: cell_activity; GFP activation; 1.15-fold over V3 in screen; PAM TTTR. To be noted: tags: N-terminal SV40 NLS, C-terminal c-Myc NLS, mCherry.

In series [2] the target is T2, dCas14-VPR (dUn1Cas12f1-VPR) (UniProt A0A482D308 SEQ:1-529).
T2 chain: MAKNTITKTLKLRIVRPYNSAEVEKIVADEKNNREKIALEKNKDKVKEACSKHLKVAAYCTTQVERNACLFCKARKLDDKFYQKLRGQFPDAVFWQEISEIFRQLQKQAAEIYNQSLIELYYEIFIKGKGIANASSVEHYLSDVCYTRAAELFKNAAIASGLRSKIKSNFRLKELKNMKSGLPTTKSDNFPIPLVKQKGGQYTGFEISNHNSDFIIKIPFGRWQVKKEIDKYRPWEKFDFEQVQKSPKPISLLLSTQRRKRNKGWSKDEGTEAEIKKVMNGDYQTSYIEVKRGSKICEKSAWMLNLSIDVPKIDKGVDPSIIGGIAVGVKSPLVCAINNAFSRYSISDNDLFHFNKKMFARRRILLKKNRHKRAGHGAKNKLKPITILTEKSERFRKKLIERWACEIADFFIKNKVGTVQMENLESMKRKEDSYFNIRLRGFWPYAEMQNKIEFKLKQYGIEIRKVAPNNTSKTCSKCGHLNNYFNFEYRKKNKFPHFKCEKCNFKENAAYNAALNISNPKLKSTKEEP
Description: cell_activity; GFP activation, 3% GFP+ cells; PAM TTTR. To be noted: chain copies: 2. How it is done: (§1) Using a doxycycline (Dox)-inducible TRE3G-EGFP HEK293T reporter cell line and a sgRNA targeting the promoter, activation efficiency of dCas14-VPR was measured. Wild-type HEK293T cells (ATCC) and the HEK293T TRE3G-GFP reporter line stably encoding EGFP under a Tet-On promoter (pTRE3G) (Y. Gao et al., Genome Res. 22, (2012): 1760-74) were cultured in DMEM with high glucose, sodium pyruvate and GlutaMAX (Thermo Fisher), additionally supplemented with 10% FBS (Sigma). Cells were grown at 37° C. and 5% CO₂ and maintained at confluency below 80%. All transfections were performed with TransIT-LT1 transfection reagent (Mirus) at a ratio of 3 µL reagent per µg of plasmid. Cells were plated 1 day before at 1×10⁵ cells/mL. For this and other GFP activation assays described in these Examples, 500 ng of dCas constructs and 250 ng sgRNA or crRNA plasmids were transfected to HEK293T TRE3G-GFP cells in 24-well plates. Transfected cells were analyzed 2 days post-transfection for GFP activation. Here, no reporter activation was observed (FIG. 3), implying the natural Cas14 system fails to function in the human genome context.

For series [3], the target named is T3, dCasMINI-V1-VPR (D143R) (UniProt A0A482D308 SEQ:1-529).
T3 chain: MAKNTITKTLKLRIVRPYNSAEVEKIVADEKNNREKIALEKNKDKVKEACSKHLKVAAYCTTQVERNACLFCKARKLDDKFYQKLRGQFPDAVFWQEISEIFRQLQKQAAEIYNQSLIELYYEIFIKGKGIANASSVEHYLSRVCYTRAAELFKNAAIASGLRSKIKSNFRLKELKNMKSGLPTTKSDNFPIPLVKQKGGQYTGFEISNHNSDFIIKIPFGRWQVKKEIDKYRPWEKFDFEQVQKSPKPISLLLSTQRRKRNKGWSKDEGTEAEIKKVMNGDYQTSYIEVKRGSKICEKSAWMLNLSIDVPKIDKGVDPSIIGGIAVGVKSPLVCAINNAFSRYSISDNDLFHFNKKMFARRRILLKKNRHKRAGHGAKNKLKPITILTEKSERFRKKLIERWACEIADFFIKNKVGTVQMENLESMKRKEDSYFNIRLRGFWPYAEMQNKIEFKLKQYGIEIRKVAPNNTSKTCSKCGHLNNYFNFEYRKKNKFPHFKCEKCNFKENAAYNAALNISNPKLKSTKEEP
The series is described as follows: cell_activity; GFP activation; PAM TTTR. The conditions noted are these: chain copies: 2. How it is done:
as §1

The target of series [4] is T4, dCasMINI-V3-VPR (D143R/T147R/K330R) (UniProt A0A482D308 SEQ:1-529).
T4 chain: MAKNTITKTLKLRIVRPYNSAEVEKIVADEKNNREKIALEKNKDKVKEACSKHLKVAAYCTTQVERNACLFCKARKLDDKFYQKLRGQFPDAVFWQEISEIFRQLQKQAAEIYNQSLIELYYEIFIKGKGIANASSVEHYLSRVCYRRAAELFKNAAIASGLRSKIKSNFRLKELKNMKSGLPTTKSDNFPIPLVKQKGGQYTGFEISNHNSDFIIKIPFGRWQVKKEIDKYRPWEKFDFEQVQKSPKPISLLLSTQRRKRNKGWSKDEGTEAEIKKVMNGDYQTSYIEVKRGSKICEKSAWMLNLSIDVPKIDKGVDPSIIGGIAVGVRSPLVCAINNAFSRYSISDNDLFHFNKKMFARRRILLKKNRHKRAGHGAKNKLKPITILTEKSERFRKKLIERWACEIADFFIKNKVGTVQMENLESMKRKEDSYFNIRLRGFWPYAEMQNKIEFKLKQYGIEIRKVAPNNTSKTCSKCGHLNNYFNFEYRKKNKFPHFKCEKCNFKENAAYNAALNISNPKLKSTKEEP
The series is described as follows: cell_activity; GFP activation; PAM TTTR. Here is the method: as §1

In series [5] the target is T5, dCasMINI-V2-VPR (D143R/T147R) (UniProt A0A482D308 SEQ:1-529).
T5 chain: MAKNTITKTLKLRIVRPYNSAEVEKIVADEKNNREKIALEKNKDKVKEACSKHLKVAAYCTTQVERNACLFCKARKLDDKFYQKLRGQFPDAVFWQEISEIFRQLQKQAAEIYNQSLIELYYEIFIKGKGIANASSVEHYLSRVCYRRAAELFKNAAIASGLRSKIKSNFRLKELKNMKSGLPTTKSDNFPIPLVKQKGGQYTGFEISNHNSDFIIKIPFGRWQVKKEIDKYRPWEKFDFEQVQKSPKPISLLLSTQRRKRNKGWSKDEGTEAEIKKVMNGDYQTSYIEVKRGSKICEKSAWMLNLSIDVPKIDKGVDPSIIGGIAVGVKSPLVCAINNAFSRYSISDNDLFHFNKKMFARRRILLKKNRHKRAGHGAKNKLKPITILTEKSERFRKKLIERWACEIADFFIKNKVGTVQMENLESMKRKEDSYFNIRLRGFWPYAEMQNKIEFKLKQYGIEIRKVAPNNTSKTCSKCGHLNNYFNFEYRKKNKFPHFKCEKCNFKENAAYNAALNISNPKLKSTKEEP
Description: cell_activity; GFP activation; PAM TTTR. The conditions noted are these: chain copies: 2. How it is done: as §1

B1: sgRNA Design 2 (stem-loop truncation) targeting TRE3G ; TRE3G promoter target (ssRNA ; dsDNA)
RNA: GGGCUUCACUGAUAAAGUGGAGAACCGCUUCACCAAAAGCUGUCCCUUAGGGGAUUAGAACUUGAGUGAAGGUGGGCUGCUUGCAUCAGCCUAAUGUCGAGAAGUGCUUUCUUCGGAAAGUAACCCUCGAAACAAAUUCAUUUGAAUGAAGGAAUGCAACCUCCCUAUCAGUGAUAGAGAACG
DNA 1: TTTACTCCCTATCAGTGATAGAGAACGTAT
DNA 2: ATACGTTCTCTATCACTGATAGGGAGTAAA
modifications: [-]
On to B1, for which the activity is 244 fold activation in series [1]; 3.6 fold over non-targeting in series [2]; above 24 fold over dCas14-VPR in series [3]; 1.26 fold over D143R/T147R in series [4]; 1.55 fold over best single variant in series [5].
